The target of the assay is S. ruber SSB cdel 111 C-terminal deletion mutant lacking the C-terminal 111 residues of the wildtype SSB (Salinibacter ruber). As to the kind of experiment: size exclusion chromatography, 150 mM NaCl, self-association.

Substance “S. ruber SSB cdel 111 C-terminal deletion mutant lacking the C-terminal 111 residues of the wildtype SSB” came in with an oligomer mass as multiple of the monomer mass (times monomer size) of 3.8.

These data come from patent US20230092081A1.
